Target: recombinant 6xHis-GBP (Arabidopsis thaliana) (UniProt Q9LU39)
Assay: MST; 6xHis-GBP labelled with RED-NHS 2nd generation as target, with or without GluTR, ligand in 1:1 dilutions from 5 nM to 110 µM; Monolith NT.115, 30°C, 40% LED power, PBS

recombinant 6xHis-GBP (Arabidopsis thaliana), sequence (Q9LU39 43-317): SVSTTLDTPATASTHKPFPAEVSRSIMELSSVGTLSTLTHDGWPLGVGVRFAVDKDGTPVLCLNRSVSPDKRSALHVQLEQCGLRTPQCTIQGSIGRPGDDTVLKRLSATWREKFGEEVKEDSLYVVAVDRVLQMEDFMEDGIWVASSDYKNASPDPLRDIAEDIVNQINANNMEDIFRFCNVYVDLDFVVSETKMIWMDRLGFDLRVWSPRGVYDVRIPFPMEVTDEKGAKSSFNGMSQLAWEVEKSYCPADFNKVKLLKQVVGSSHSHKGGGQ

Kd: 42 nM
Substance: recombinant 6xHis-GluTR (from UniProt P42804 62-543) (enzyme)
